# Key:
# [1] = target: T1, cGKIα-CBRC (proteinkinase G isoform Iα fused at its C-terminus to the C-terminal fragment of click beetle red … (UniProt P00516 1-671)); assay: split reporter (BiFC, NanoBiT); click beetle red luciferase complementation (CBRN/CBRC) in co-transfected COS-7 cells, 15 µg DNA, vector ratios 1:25 to 1:100 (mostly 1:50); cells untreated or stimulated for 24 h with 8-Br-cGMP (0.5-2.5 mM), 8-pCPT-cGMP (100-500 µM) or 8-Br-cAMP (0.125-1 mM); Bright-Glo reagent, plate reader, RLU; conditions: partners not purified
# T1 construct: cGMP-dependent protein kinase I, alpha isoform (cGKIα, PKGIα); also called PKGIα; cGMP dependent kinase Iα; source: COS-7 cells, calcium phosphate transfection, in living cells; not shown: CBRC (click beetle red luciferase aa 395-542; joined by a 17-residue Gly/Ser linker), C-terminal, kept
# T1 sequence (looked up): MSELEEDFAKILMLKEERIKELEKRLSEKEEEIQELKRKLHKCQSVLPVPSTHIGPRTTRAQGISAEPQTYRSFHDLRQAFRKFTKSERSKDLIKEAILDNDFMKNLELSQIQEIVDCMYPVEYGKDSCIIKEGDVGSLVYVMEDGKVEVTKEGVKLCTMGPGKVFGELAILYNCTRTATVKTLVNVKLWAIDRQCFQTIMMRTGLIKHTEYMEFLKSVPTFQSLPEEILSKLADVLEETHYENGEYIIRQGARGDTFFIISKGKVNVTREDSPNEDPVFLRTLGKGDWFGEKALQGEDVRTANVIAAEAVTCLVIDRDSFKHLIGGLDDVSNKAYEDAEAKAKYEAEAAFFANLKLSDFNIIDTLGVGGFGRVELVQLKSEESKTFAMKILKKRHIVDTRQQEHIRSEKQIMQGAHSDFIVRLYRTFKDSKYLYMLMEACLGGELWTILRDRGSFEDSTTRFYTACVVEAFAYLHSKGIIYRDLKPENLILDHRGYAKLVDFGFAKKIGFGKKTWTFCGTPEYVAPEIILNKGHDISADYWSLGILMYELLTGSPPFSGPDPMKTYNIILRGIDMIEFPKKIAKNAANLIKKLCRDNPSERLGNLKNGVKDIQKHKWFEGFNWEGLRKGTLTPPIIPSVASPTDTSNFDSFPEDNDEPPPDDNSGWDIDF
# [2] = target: the molecule itself; assay: Western blot of monomer and dimer under non-reducing conditions; primary mesangial cells, control or stimulated with H2O2, non-reducing conditions (Figure S3)
Binder,"fold signal amplification (100 µM 8-pCPT-cGMP, treated/untreated) [1] [fold]","fold signal amplification (200 µM 8-pCPT-cGMP, treated/untreated) [1] [fold]","fold signal amplification (0.5 mM 8-Br-cGMP, treated/untreated) [1] [fold]","fold signal amplification (500 µM 8-pCPT-cGMP, treated/untreated) [1] [fold]","fold signal amplification (1 mM 8-Br-cGMP, 24 h, against basal luminescence) [1] [fold]","fold signal amplification (1 mM 8-Br-cGMP, treated/untreated) [1] [fold]","fold signal amplification (2.5 mM 8-Br-cGMP, treated/untreated) [1] [fold]",stoichiometry N [2]
"CBRN-RGS2 (regulator of G-protein signaling 2 fused at its N-terminus to the N-terminal fragment of click beetle red luciferase) (natural protein, UniProt P41220 1-211, looked up, regulator of G-protein signaling 2 (RGS2); cDNA from pCMV6_RGS2 (OriGene); source: COS-7 cells, calcium phosphate transfection, in living cells; not shown: CBRN (click beetle red luciferase aa 1-416; joined by a 17-residue Gly/Ser linker), N-terminal, kept) MQSAMFLAVQHDCRPMDKSAGSGHKSEEKREKMKRTLLKDWKTRLSYFLQNSSTPGKPKTGKKSKQQAFIKPSPEEAQLWSEAFDELLASKYGLAAFRAFLKSEFCEENIEFWLACEDFKKTKSPQKLSSKARKIYTDFIEKEAPKEINIDFQTKTLIAQNIQEATSGCFTTAQKRVYSLMENNSYPRFLESEFYQDLCKKPQITTEPHAT",3.5,3.8,2.2,3.9,~3.5,3.6,2.8,–
"cGKIα in primary mesangial cells (enzyme, UniProt P0C605 1-671, looked up, cGMP-dependent protein kinase I, alpha isoform, in primary mesangial cells; also called the kinase; PKGIα) MSELEEDFAKILMLKEERIKELEKRLSEKEEEIQELKRKLHKCQSVLPVPSTHIGPRTTRAQGISAEPQTYRSFHDLRQAFRKFTKSERSKDLIKEAILDNDFMKNLELSQIQEIVDCMYPVEYGKDSCIIKEGDVGSLVYVMEDGKVEVTKEGVKLCTMGPGKVFGELAILYNCTRTATVKTLVNVKLWAIDRQCFQTIMMRTGLIKHTEYMEFLKSVPTFQSLPDEILSKLADVLEETHYENGEYIIRQGARGDTFFIISKGQVNVTREDSPSEDPVFLRTLGKGDWFGEKALQGEDVRTANVIAAEAVTCLVIDRDSFKHLIGGLDDVSNKAYEDAEAKAKYEAEAAFFANLKLSDFNIIDTLGVGGFGRVELVQLKSEESKTFAMKILKKRHIVDTRQQEHIRSEKQIMQGAHSDFIVRLYRTFKDSKYLYMLMEACLGGELWTILRDRGSFEDSTTRFYTACVVEAFAYLHSKGIIYRDLKPENLILDHRGYAKLVDFGFAKKIGFGKKTWTFCGTPEYVAPEIILNKGHDISADYWSLGILMYELLTGSPPFSGPDPMKTYNIILRGIDMIEFPKKIAKNAANLIKKLCRDNPSERLGNLKNGVKDIQKHKWFEGFNWEGLRKGTLTPPIIPSVASPTDTSNFDSFPEDSDEPPPDDNSGWDIDF",–,–,–,–,–,–,–,2

# — PMC5979328, “Establishing a Split Luciferase Assay for Proteinkinase G (PKG) Interaction Studies” (International Journal of Molecular Sciences, 2018)
